Results on four substances are retold here after PMC5910394, “Mechanically interlocked functionalization of monoclonal antibodies” (Nature Communications, 2018).

Test [1] deals with Ile83Glu anti-HER2 memAb. Put plainly: SPR; memAb variant amine-coupled to a CM5 chip, peptide flowed over at 30 uL/min, HBS-EP+, 37 °C, Biacore T100, 1:1 binding model.
Test [2] has as its target memAb anti-HER2 (meditope-enabled, trastuzumab-based anti-HER2 antibody). In words: SPR; memAb anti-HER2 amine-coupled on a CM5 chip, meditope flowed over at 30 uL/min, HBS-EP+, 25 °C, 1:1 model, global fit, n=1 (authors estimate the error at 10-50%).
Test [3] addresses long meditope ((Ac)…). Put plainly: SPR. As to conditions: 37 °C (red point beside label LE); n = 1; parent: est. 5.3; read off a plot.
Test [4] has as its target anti-HER2 memAb (trastuzumab-based, meditope-enabled anti-HER2 antibody). Put plainly: SPR; memAb variant amine-coupled to a CM5 chip, peptide flowed over at 30 uL/min, HBS-EP+, 25 °C, Biacore T100, 1:1 binding model.

Chain of memAb anti-HER2 (meditope-enabled, trastuzumab-based anti-HER2 antibody) (heavy, as listed by the source, chain 1 of 2): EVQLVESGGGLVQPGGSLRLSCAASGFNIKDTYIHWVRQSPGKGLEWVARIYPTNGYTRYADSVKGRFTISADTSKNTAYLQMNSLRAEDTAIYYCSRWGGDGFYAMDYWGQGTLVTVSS
Chain of memAb anti-HER2 (meditope-enabled, trastuzumab-based anti-HER2 antibody) (light, as listed by the source, chain 2 of 2): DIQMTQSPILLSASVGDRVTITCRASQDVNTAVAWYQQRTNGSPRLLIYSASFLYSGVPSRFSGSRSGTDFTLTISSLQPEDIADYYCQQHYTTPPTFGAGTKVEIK
Chain of Ile83Glu anti-HER2 memAb (heavy, as listed by the source, chain 1 of 2): as the sequence (heavy, as listed by the source, chain 1 of 2) above
Chain of Ile83Glu anti-HER2 memAb (light, as listed by the source, chain 2 of 2): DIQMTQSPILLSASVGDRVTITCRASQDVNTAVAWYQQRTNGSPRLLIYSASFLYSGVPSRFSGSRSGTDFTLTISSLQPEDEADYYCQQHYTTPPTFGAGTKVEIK
Chain of anti-HER2 memAb (trastuzumab-based, meditope-enabled anti-HER2 antibody) (heavy, as listed by the source, chain 1 of 2): as the sequence (heavy, as listed by the source, chain 1 of 2) above

In test [1], “5-diphenylalanine-8-Arg-(PEG)2-azido-meditope ((Ac)CQFDA(Ph)2STRXLRCGGSK, X = arginine-(PEG)2-azide) (peptide)” came in with a dissociation constant Kd of 2.1 nM and a half-life of 83 min.
Turning to CQFDA(Ph)2STRRLKC meditope (peptide), in test [2], the koff is 0.008 s⁻¹ and the kon was 200000 M⁻¹ s⁻¹.
Consider “anti-HER2 memAb (trastuzumab-based, meditope-enabled anti-HER2 antibody) LC:Ile83Glu”, for which the kon (log10(M-1 s-1)) in test [3] was determined as 5.6.
In the case of “meditope with Leu5 substituted by L-diphenylalanine (peptide)”, in test [4], the Kd was determined as 40 nM.
